From article doi:10.1101/2020.02.12.945204 (bioRxiv, 2020)

B1: H48 flagella (polymeric flagellin) from commensal E. coli K12:O175:H48 (natural protein)
chain: MAQVINTNSLSLITQNNINKNQSALSSSIERLSSGLRINSAKDDAAGQAIANRFTSNIKGLTQAARNANDGISVAQTTEGALSEINNNLQRVRELTVQATTGTNSESDLSSIQDEIKSRLDEIDRVSGQTQFNGVNVLAKNGSMKIQVGANDNQTITIDLKQIDAKTLGLDGFSVKNNDTVTTSAPVTAFGATTTNNIKLTGITLSTEAATDTGGTNPASIEGVYTDNGNDYYAKITGGDNDGKYYAVTVANDGTVTMATGATANATVTDANTTKATTITSGGTPVQIDNTAGSATANLGAVSLVKLQDSKGNDTDTYALKDTNGNLYAADVNETTGAVSVKTITYTDSSGAASSPTAVKLGGDDGKTEVVDIDGKTYDSADLNGGNLQTGLTAGGEALTAVANGKTTDPLKALDDAIASVDKFRSSLGAVQNRLDSAVTNLNNTTTNLSEAQSRIQDADYATEVSNMSKAQIIQQAGNSVLAKANQVPQQVLSLLQG
B2: H6 flagella (polymeric flagellin) from E. coli O127:H6 (natural protein)
chain: MAQVINTNSLSLITQNNINKNQSALSSSIERLSSGLRINSAKDDAAGQAIANRFTSNIKGLTQAARNANDGISVAQTTEGALSEINNNLQRIRELTVQASTGTNSDSDLDSIQDEIKSRLDEIDRVSGQTQFNGVNVLAKDGSMKIQVGANDGQTITIDLKKIDSDTLGLNGFNVNGKGETANTAATLKDMSGFTAAAAPGGTVGVTQYTDKSAVASSVDILNAVAGADGNKVTTSADVGFGTPAAAVTYTYNKDTNSYSAASDDISSANLAAFLNPQARDTTKATVTIGGKDQDVNIDKSGNLTAADDGAVLYMDATGNLTKNNAGGDTQATLAKVATATGAKAATIQTDKGTFTSDGTAFDGASMSIDANTFANAVKNDTYTATVGAKTYSVTTGSAAADTAYMSNGVLSDTPPTYYAQADGSITTTEDAAAGKLVYKGSDGKLTTDTTSKAESTSDPLAALDDAISQIDKFRSSLGAVQNRLDSAVTNLNNTTTNLSEAQSRIQDADYATEVSNMSKAQIIQQAGNSVLAKANQVPQQVLSLLQG

Assays:
[1] = biological target: the molecule itself; assay: SEC
[2] = biological target: B2; assay: ELISA
[3] = biological target: B1; assay: ELISA

| Binder | binding result [1] | binding result [2] | binding result [3] |
| --- | --- | --- | --- |
| B1 | binds |  |  |
| B2 | binds |  |  |
| recombinant human galectin-4 (natural protein) MAYVPAPGYQPTYNPTLPYYQPIPGGLNVGMSVYIQGVASEHMKRFFVNFVVGQDPGSDVAFHFNPRFDGWDKVVFNTLQGGKWGSEERKRSMPFKKGAAFELVFIVLAEHYKVVVNGNPFYEYGHRLPLQMVTHLQVDGDLQLQSINFIGGQPLRPQGPPMMPPYPGPGHCHQQLNSLPTMEGPPTFNPPVPYFGRLQGGLTARRTIIIKGYVPPTGKSFAINFKVGSSGDIALHINPRMGNGTVVRNSLLNGSWGSEEKKITHNPFGPGQFFDLSIRCGLDRFKVYANGQHLFDFAHRLSAFQRVDTLEIQGDVTLSYVQI |  | binds | binds |
